According to patent US20210063414A1, “METHODS FOR PREVENTING AND/OR TREATING BONE LOSS CONDITIONS BY MODULATING IRISIN” (Dana-Farber Cancer Institute, Inc., priority 2018, published 2021):

Tests used:
[1] = molecular target: T1, MLO-Y4 cell surface proteins (Mus musculus, UniProt Q3U2P1); assay: Crosslinking/co-immunoprecipitation/mass spectrometry (TMT quantitative proteomics) to identify irisin receptors; type: binding; settings: co-precipitated protein Sec24a (SC24A_MOUSE)
T1 construct: endogenous in cells; host or cells: MLO-Y4
T1 sequence (Q3U2P1 1-1090): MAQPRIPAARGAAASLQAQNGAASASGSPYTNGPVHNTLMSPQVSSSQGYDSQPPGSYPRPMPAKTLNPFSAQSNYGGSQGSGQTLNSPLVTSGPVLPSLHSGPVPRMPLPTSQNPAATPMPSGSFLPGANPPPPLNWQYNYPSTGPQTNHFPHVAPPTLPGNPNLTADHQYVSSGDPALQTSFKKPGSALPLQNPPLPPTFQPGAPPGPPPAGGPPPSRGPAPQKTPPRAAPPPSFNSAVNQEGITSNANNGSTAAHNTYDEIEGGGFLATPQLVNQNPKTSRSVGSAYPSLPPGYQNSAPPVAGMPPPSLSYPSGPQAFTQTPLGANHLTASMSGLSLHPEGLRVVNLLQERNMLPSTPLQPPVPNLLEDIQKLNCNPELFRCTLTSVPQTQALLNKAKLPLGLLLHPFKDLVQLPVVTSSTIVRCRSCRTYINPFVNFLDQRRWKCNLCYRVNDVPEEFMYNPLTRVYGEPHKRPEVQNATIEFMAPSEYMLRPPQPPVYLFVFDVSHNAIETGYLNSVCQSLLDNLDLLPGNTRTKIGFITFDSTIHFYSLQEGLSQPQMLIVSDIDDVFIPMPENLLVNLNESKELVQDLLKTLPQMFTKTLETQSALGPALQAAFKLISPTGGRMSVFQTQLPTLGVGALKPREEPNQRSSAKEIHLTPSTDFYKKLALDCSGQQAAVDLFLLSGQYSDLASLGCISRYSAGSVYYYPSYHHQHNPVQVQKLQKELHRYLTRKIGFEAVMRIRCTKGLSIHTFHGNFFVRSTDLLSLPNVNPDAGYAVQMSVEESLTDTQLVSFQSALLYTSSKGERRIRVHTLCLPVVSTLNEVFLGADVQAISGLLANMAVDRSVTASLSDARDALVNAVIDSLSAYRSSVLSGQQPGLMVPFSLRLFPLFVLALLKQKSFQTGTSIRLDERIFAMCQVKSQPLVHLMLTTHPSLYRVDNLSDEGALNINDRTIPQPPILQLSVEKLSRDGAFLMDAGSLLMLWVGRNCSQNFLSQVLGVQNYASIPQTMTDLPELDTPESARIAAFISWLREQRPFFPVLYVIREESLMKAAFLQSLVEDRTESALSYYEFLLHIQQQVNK
Method in brief: (§1)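 Mouse MLO-Y4 cells were switched to serum-free FreeStyle medium for 4 h, chilled, then exposed to 10 nM His-tagged irisin (or adipsin as control) for 20 min. Cells were crosslinked with 1.5 mM DTSSP (30 min, ice), and bound proteins were pulled down on Ni-NTA and eluted with 250 mM imidazole. Eluates were separated by SDS-PAGE, trypsin-digested in gel, TMT 6-plex labelled and quantified by MS3-based LC-MS/MS on an Orbitrap Fusion Lumos.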

[2] = molecular target: T2, MLO-Y4 cell surface proteins (Mus musculus, UniProt P09671); assay: as above; type: binding; settings: co-precipitated protein Sod2 (SODM_MOUSE)
T2 construct: endogenous in cells; host or cells: MLO-Y4
T2 sequence (P09671 25-222): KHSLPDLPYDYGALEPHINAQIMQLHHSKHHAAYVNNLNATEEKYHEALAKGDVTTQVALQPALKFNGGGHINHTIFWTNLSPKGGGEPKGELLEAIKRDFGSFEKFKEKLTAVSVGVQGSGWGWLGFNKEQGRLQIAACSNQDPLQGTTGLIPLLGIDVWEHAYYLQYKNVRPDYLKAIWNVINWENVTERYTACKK
Method in brief: as §1

B1: irisin: secreted cleaved form of FNDC5; recombinant human/mouse irisin with C-terminal his tag produced in HEK293 cells (protein)
chain: DSPSAPVNVTVRHLKANSAVVSWDVLEDEVVIGFAISQQKKDVRMLRFIQEVNTTTRSCALWDLEEDTEYIVHVQAISIQGQSPASEPVLFKTPREAEKMASKNKDEVTMKE
modifications: left off: small tags and cut ends
notes: secreted cleaved form of FNDC5; recombinant human/mouse irisin with C-terminal his tag produced in HEK293 cells
- TMT signal-to-noise ratio [1]: 29.3088
- irisin/adipsin TMT signal-to-noise ratio [1]: 0.246
- TMT signal-to-noise ratio [2]: 472.133
- irisin/adipsin TMT signal-to-noise ratio [2]: 0.458
